# Results reported in IntAct's records for PubMed 22484091.
# B1: Charged multivesicular body protein 4b (Homo sapiens), Q9H444 (parent)
# chain: MSVFGKLFGAGGGKAGKGGPTPQEAIQRLRDTEEMLSKKQEFLEKKIEQELTAAKKHGTKNKRAALQALKRKKRYEKQLAQIDGTLSTIEFQREALENANTNTEVLKNMGYAAKAMKAAHDNMDIDKVDELMQDIADQQELAEEISTAISKPVGFGEEFDEDELMAELEELEQEELDKNLLEISGPETVPLPNVPSIALPSKPAKKKEEEDDDMKELENWAGSM
# B2: BRO1 domain-containing protein BROX (Homo sapiens), Q5VW32 (parent)
# chain: MTHWFHRNPLKATAPVSFNYYGVVTGPSASKICNDLRSSRARLLELFTDLSCNPEMMKNAADSYFSLLQGFINSLDESTQESKLRYIQNFKWTDTLQGQVPSAQQDAVFELISMGFNVALWYTKYASRLAGKENITEDEAKEVHRSLKIAAGIFKHLKESHLPKLITPAEKGRDLESRLIEAYVIQCQAEAQEVTIARAIELKHAPGLIAALAYETANFYQKADHTLSSLEPAYSAKWRKYLHLKMCFYTAYAYCYHGETLLASDKCGEAIRSLQEAEKLYAKAEALCKEYGETKGPGPTVKPSGHLFFRKLGNLVKNTLEKCQRENGFIYFQKIPTEAPQLELKANYGLVEPIPFEFPPTSVQWTPETLAAFDLTKRPKDDSTKPKPEEEVKPVKEPDIKPQKDTGCYIS
# B3: BRO1 domain-containing protein BROX (Homo sapiens), Q5VW32 (parent)
# chain: B2 chain
# partner: B1 chain
# Variants of: B1
# Conditions: with brox_human BROX
row,effect of a mutation on the interaction,Variant
1,decreasing interaction strength,L217A
2,decreasing interaction strength,W220A

# Variants of: B2
# Conditions: with CHMP5, Q9NZZ3-1
# Chain of CHMP5, Q9NZZ3-1 (Q9NZZ3 whole entry): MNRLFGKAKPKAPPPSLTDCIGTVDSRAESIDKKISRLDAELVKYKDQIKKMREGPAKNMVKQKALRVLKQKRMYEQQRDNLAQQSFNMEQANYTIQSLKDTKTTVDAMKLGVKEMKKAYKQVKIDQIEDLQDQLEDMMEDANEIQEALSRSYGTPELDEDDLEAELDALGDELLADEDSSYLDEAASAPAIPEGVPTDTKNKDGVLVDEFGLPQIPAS
row,effect of a mutation on the interaction,Variant
1,disrupting interaction strength,L208D;L212D
2,disrupting interaction strength,Y348A
3,disrupting interaction strength,H204A

# Variants of: B3
# Conditions: with chm4b_human CHMP4B
row,effect of a mutation on the interaction,Variant
1,disrupting interaction strength,L208D;L212D
